The conditions of data set [1]: cited from earlier work.
Data set [2] can be described thus: Phase 1b study (Example 10): safety of bemarituzumab with CAPOX with or without nivolumab. The following applies: cohort A (DL1 & DL2) and cohort C; based on the known bemarituzumab safety profile. Type of data set: in vivo, human.
The next data set addresses T1, FGFR2b (Homo sapiens, UniProt P21802).
T1 construct: in cell culture in FGFR2b overexpressing gastric and breast cancer cell lines; endogenous in cells
In words: FGF ligand-stimulated FGFR2b phosphorylation and receptor level in cell culture. The class given is cell-based.

Data set [3] concerns FGFR2b overexpressing gastric and breast cancer cell lines. Briefly: Cell proliferation in cell culture. Type of data set: cell-based. The following applies: FGF ligand-stimulated.
The test system of a further data set is FGFR substrate-2 (FRS2). Briefly: Downstream signaling: phosphorylation of FGFR substrate-2 (FRS2). Type of data set: cell-based. How it is done:
The effect on downstream signaling was measured by examining phosphorylation of a protein that is directly phosphorylated by the FGFR2 protein, FGFR substrate-2 (FRS2).

Data set [4] in a line: Pharmacokinetics after intravenous administration in cynomolgus monkeys. Type of data set: in vivo. The procedure:
(§1) The half-life was dose-dependent, ranging from 0.8 days at the lowest doses (1 to 1.5 mg/kg) to at least 8 days at the highest doses (100 to 150 mg/kg) tested in cynomolgus monkeys. […] Target-mediated clearance was saturable, marked by dose-proportional increases in exposure at doses exceeding this level when dosed at weekly intervals. […] As such, it is contemplated that in some embodiments, subjects treated with bemarituzumab are not pregnant.

For another data set, the system named is FGF23 signaling. Briefly: FGF23 signaling. The conditions noted are these: in contrast to the FGFR tyrosine kinase inhibitors.
A short description of data set [5]: Phase 1b study (Example 10): bemarituzumab serum concentration / PK with CAPOX with or without nivolumab. The class given is in vivo, human. The conditions noted are these: for Cycle 1 Cmax (median) / Cycle 1 Ctrough (median) / Cycle 2 Cmax (median) / Cycle 2 Ctrough (median): serum, preliminary. The text has this:
The actual sample collection date and time (24-hour clock time) of each sample will be recorded.

A short description of data set [6]: Embryo-fetal development with prenatal and postnatal development study. The class given is in vivo. The following applies: all dose levels (5 to 100 mg/kg/doses). The procedure: as §1
Data set [7] concerns FGFR2b overexpressing gastric and breast xenograft models. Briefly: Tumor xenograft models. Type of data set: in vivo.
The nature of data set [8]: Clinical safety of bemarituzumab (earlier studies, with mFOLFOX6). The class given is in vivo, human. From the text:
Corneal events are very common with bemarituzumab with the most common adverse event being dry eye. Although nearly all of the events have been non-serious, grade 3 events such ulcerative keratitis and punctate keratitis which can lead to decreases in visual acuity have been observed. The majority of the corneal events typically resolve with treatment interruption or discontinuation and standard of care interventions for the corneal events. As such, it is contemplated that in some embodiments, subjects treated with bemarituzumab are further treated with ocular lubricants. The ocular lubricants may be administered prophylactically to reduce the risk of corneal events.

The conditions of data set [9]: treatment with bemarituzumab, versus FGFR TKIs; cited from earlier work.
Another data set addresses FcγRIIIa (Homo sapiens, UniProt P08637). Briefly: Affinity for Fc receptor. Type of data set: binding. The following applies: compared to the fucosylated molecule. The text has this:
In the method of some embodiments, the anti-FGFR2 antibody comprises the heavy chain of SEQ ID NO: 2 and the light chain of SEQ ID NO: 3, and is afucosylated.

The mark [10] stands for this setting: Cohort A DL1: 15 mg/kg IV Q3W + 7.5 mg/kg C1D8 + CAPOX, N=6.
Setting [11] is: Cohort A DL2: 22 mg/kg IV Q3W + 11 mg/kg C1D8 + CAPOX, N=4.
The mark [12] stands for this setting: Cohort C: 22 mg/kg IV Q3W + 11 mg/kg C1D8 + CAPOX + Nivo, N=6.

The text below walks through data of patent US20260250397A1, “TREATMENT OF GASTRIC CANCER” (AMGEN INC., priority 2022, published 2026).

The term half-life denotes the time needed for the level to fall by half in the phase considered.

“Also recorded” adds a separate entry of the source. Like-named read-outs stand apart in the source and are kept apart here.

T1 sequence (P21802 22-822 isoform P21802-3 limits assumed): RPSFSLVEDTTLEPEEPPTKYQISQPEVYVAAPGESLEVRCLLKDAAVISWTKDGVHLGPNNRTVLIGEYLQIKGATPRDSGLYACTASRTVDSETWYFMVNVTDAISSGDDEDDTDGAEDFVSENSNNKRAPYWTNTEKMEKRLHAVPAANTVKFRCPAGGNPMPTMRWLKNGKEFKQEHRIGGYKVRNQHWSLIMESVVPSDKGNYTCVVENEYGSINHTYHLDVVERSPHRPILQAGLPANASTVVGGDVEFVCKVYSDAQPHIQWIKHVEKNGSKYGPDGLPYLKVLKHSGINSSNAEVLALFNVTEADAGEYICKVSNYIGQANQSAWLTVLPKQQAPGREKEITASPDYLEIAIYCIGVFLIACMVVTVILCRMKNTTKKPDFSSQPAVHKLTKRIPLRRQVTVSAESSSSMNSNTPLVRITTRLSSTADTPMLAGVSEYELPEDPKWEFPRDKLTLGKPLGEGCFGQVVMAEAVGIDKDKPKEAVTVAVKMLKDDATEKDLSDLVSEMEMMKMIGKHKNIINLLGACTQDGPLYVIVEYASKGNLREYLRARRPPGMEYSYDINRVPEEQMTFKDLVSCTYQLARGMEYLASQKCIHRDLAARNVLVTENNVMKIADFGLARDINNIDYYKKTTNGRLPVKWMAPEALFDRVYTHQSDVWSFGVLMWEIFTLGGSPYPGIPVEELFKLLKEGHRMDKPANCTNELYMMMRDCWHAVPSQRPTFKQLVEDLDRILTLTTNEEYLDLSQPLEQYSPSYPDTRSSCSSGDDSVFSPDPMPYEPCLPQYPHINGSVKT
Sequence of FcγRIIIa (P08637 17-254): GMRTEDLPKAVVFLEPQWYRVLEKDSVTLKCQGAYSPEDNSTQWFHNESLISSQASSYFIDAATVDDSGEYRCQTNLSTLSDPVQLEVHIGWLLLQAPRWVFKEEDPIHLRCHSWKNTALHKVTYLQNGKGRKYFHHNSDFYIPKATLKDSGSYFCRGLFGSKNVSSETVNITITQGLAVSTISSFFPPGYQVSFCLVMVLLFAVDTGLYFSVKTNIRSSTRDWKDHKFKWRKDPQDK

For `CCCCCOC(=O)Nc1nc(=O)n([C@@H]2O[C@H](C)[C@@H](O)[C@H]2O)cc1F` [capecitabine], in [1] ((30%)), the “most common side effects” value is “diarrhea, hand-and-foot syndrome, nausea, vomiting, abdominal pain, fatigue/weakness, and hyperbilirubinemia”.

Regarding `O=C1[O][Pt]2([NH][C@@H]3CCCC[C@H]3[NH]2)[O]C1=O` [oxaliplatin], the “most common side effects” value in [1] ((40%)) was “peripheral sensory neuropathy, neutropenia, thrombocytopenia, anemia, nausea, increase in transaminases and alkaline phosphatase, diarrhea, emesis, fatigue, and stomatitis”.

On to bemarituzumab, for which, in data set [2], the safety findings entry was “no new safety findings”. Also, the FGFR2b receptor level result with FGFR2b is on record as “downregulates the receptor”. The FGFR2b phosphorylation result with FGFR2b (FGF ligand-stimulated, FGFR2b overexpressing gastric and breast cancer cell lines) is “inhibits; also recorded: blocks”. Besides, the cell proliferation entry in [3] is given as “inhibits”. In addition, the “downstream signaling (FRS2 phosphorylation)” value in the data set on FGFR substrate-2 (FRS2) is recorded as “inhibits downstream signaling”. For the same compound, the half-life entry in [4] (highest doses (100 to 150 mg/kg) tested) is on record as “at least 8 days”. Moreover, in [4] (lowest doses (1 to 1.5 mg/kg)), the half-life was 19 h. Moreover, the PK behaviour result in data set [4] (rats and cynomolgus monkeys) is recorded as “dose-dependent, nonlinear PK”. The FGF23 signaling entry in the data set with FGF23 signaling is on record as “does not inhibit”. Also, in [5] (CAPOX background), the “drug-drug interaction (DDI) with respect to PK between bemarituzumab and nivolumab” value is given as “No drug-drug interaction”. In data set [5] (setting [10]), the “Cycle 1 Cmax (median)” value was found to be 360.8 µg/mL, the “Cycle 1 Ctrough (median)” value is 111.5 µg/mL, the “Cycle 2 Cmax (median)” value was found to be 457.0 µg/mL and the “Cycle 2 Ctrough (median)” value is 86.6 µg/mL. Moreover, in data set [5] (setting [11]), the “Cycle 1 Cmax (median)” value is 333.8 µg/mL, the “Cycle 1 Ctrough (median)” value is 125.9 µg/mL, the “Cycle 2 Cmax (median)” value was 655.8 µg/mL and the “Cycle 2 Ctrough (median)” value came out at 71.1 µg/mL. Also, in [5] (setting [12]), the “Cycle 1 Cmax (median)” value came to 381.4 µg/mL, the “Cycle 1 Ctrough (median)” value was 130.1 µg/mL, the “Cycle 2 Cmax (median)” value turned out to be 549.8 µg/mL and the “Cycle 2 Ctrough (median)” value worked out at 133.0 µg/mL. Moreover, in [6], the “reproductive and developmental toxicities” value was “Significant reproductive and developmental toxicities were observed at all dose levels”. In addition, the tumor growth result in [7] (FGFR2b overexpressing gastric and breast xenograft models) was “inhibits tumor growth”. Besides, the anti-tumor activity result in data set [7] (FGFR2b-overexpressing human tumor xenograft models, well-tolerated doses) is “dose-related anti-tumor activity with regression and complete responses”. Further, in data set [8] (human, in vivo), the safety profile entry is on record as “acceptable safety profile”. Moreover, the identified risks entry in data set [8] (in combination with mFOLFOX6) was “corneal toxicity, infusion related reactions, gastrointestinal toxicity (stomatitis and mucosal inflammation), nail toxicity and increase in AST and ALT”. The hyperphosphatemia result in data set [9] is “not associated with the hyperphosphatemia”. Also, the “affinity for the Fc receptor FcγRIIIa” value with FcγRIIIa was “higher affinity”.
